{"source": "paper PMC5145273", "biological_target": "FabL9, soluble purified Fab", "assay": "ELISA", "data": [{"substance": "GluA4_(flip) ligand-binding domain (LBD), rat (domain or fragment)", "values": [{"measurement": "IC50", "result": 260, "unit": "nM"}]}]}
